The values that follow come from patent US20240108653A1 (UNIVERSITY OF UTAH RESEARCH FOUNDATION, published 2024).

For the test, the target named is T1, Leucine-Rich Repeat and Ig Domain Protein 1 (LINGO1) (UniProt Q96FE5 42-620, limits assumed).
T1 construct: whole, on cells; It is endogenous on Ewing sarcoma cell lines and transduced in K562 cells
T1 sequence (looked up): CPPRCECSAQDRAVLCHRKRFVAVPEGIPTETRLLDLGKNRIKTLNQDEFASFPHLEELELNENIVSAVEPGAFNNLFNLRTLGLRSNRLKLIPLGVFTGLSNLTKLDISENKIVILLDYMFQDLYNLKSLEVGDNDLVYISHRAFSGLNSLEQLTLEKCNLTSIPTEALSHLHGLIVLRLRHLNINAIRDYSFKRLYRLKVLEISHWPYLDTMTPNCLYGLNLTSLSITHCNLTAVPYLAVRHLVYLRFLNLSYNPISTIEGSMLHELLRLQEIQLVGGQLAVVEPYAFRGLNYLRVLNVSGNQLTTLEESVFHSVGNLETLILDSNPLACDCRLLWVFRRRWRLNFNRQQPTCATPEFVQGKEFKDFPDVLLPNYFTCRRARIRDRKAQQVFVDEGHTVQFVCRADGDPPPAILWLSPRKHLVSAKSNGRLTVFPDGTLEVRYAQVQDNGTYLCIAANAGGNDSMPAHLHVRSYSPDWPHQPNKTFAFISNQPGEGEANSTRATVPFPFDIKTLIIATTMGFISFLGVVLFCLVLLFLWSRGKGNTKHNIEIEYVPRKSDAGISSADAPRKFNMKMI
The experiment in a line: flow cytometry on Ewing sarcoma cell lines; scFv detected with anti-FLAG/APC secondary antibody. As for the experimental part:
FIGS. 4A-4I show LINGO1-specific CAR T cells show cytotoxic activity against Ewing sarcoma. (FIG. 4A) mRNA expression of LINGO1 and GAPDH housekeeping gene in Ewing sarcoma cell lines and healthy brain tissue as determined by RT-PCR. (FIG. 4B) Schema of CAR construct and four LINGO1-specific scFv domains (FIG. 4C) Binding of LINGO1-specific scFvs at 5 µg/ml and secondary staining with an anti-FLAG/APC antibody (clone: L5). against Ewing sarcoma cell lines as determined by flow cytometry. Secondary antibody alone is shown in grey. (FIG. 4D) LINGO1 CAR surface expression on primary T cells after staining with an anti-HA/APC antibody as determined by flow cytometry. (FIG. 4E) IFNγ secretion as determined by ELISA and (FIG. 4F) anti-tumor activity as determined by luminescence-based cytotoxicity assay of CAR T cells expressing LINGO1 CAR variants after 24 h co-culture with A673 cells at an effector-target ratio of 1:1. (FIG. 4G) Expansion of LINGO1 CAR T cells based on Li81 VLVH and T cels expressing a CAR without a binding domain (ΔscFv). (FIG. 4H) IFNγ and IL2 production as determined by ELISA and (FIG. 4I) anti-tumor activity as determined by luminescence-based cytotoxicity assay by LINGO1 CAR T cells after 24 h co-culture with Ewing sarcoma cell lines at different effector-target ratios. Data represent mean±SD from 3 technical replicates. Statistical significance was determined by two-sided Student's t test.
CAR T cells targeting LINGO1 for the treatment of Ewing sarcoma were developed.
(In general: In flow cytometry, cells or beads pass a laser one at a time.)

B1: Li81 scFv, VLVH orientation (scFv)
scFv: DIQMTQSPATLSLSPGERATLSCRASQSVSSYLAWYQQKPGQAPRLLIYDASNRATGIPARFSGSGSGTDFTLTISSLEPEDFAVYYCQQRSNWPMYTFGQGTKLEIKGGGGSGGGGSGGGGSEVQLLESGGGLVQPGGSLRLSCAASGFTFSAYEMKWVRQAPGKGLEWVSVIGPSGGFTFYADSVKGRFTISRDNSKNTLYLQMNSLRAEDTAVYYCATEGDNDAFDIWGQGTTVTVSS
notes: It was detected with an anti-FLAG/APC antibody, so it carried a FLAG tag; also called Li81 VLVH; LINGO1-specific scFv
Turning to B1, the binding result is “binds”.

B2: Li81 scFv, VHVL orientation (scFv)
scFv: EVQLLESGGGLVQPGGSLRLSCAASGFTFSAYEMKWVRQAPGKGLEWVSVIGPSGGFTFYADSVKGRFTISRDNSKNTLYLQMNSLRAEDTAVYYCATEGDNDAFDIWGQGTTVTVSSGGGGSGGGGSGGGGSDIQMTQSPATLSLSPGERATLSCRASQSVSSYLAWYQQKPGQAPRLLIYDASNRATGIPARFSGSGSGTDFTLTISSLEPEDFAVYYCQQRSNWPMYTFGQGTKLEIK
notes: It was detected with an anti-FLAG/APC antibody, so it carried a FLAG tag; also called Li81 VHVL; LINGO1-specific scFv
As for B2, the binding result is on record as “binds”.

B3: Li62 scFv, VLVH orientation (scFv)
scFv: DIQMTQSPSFLSASVGDSVAITCRASQDISRYLAWYQQRPGKAPKLLIYDASNLQTGVPSRFSGSGSGTDFTFTITSLQPEDFGTYYCQQYDTLHPSFGPGTTVDIKGGGGSGGGGSGGGGSEVQLLESGGGLVQPGGSLRLSCAASGFTFSIYPMFWVRQAPGKGLEWVSWIGPSGGITKYADSVKGRFTISRDNSKNTLYLQMNSLRAEDTATYYCAREGHNDWYFDLWGRGTLVTVSS
notes: It was detected with an anti-FLAG/APC antibody, so it carried a FLAG tag; also called Li62 VLVH; LINGO1-specific scFv
As for B3, the binding result is recorded as “binds”.

B4: Li62 scFv, VHVL orientation (scFv)
scFv: EVQLLESGGGLVQPGGSLRLSCAASGFTFSIYPMFWVRQAPGKGLEWVSWIGPSGGITKYADSVKGRFTISRDNSKNTLYLQMNSLRAEDTATYYCAREGHNDWYFDLWGRGTLVTVSSGGGGSGGGGSGGGGSDIQMTQSPSFLSASVGDSVAITCRASQDISRYLAWYQQRPGKAPKLLIYDASNLQTGVPSRFSGSGSGTDFTFTITSLQPEDFGTYYCQQYDTLHPSFGPGTTVDIK
notes: It was detected with an anti-FLAG/APC antibody, so it carried a FLAG tag; also called Li62 VHVL; LINGO1-specific scFv
Turning to B4, the binding result was “binds”.
